{
  "source": "patent US7960364",
  "target": "HIV-1 envelope glycoprotein gp120 (UniProt P04578)",
  "data": [
    {"substance": "trypsin", "values": [
      {"measurement": "saturability of trypsin-catalyzed gp120 cleavage with gp120 concentration", "result": "nonsaturable at concentrations up to 1 µM"}
    ]}
  ]
}
